Reference: patent US6875599B2, “Mammalian secreted group III phospholipase A2” (Centre National de la Recherche Scientifique - CNRS, priority 2000, dated 2005)

Columns and labels:
[1] = pH-rate profile for the hydrolysis of phosphatidylcholine; format: biochemical, human; conditions: Q-Sepharose purified hGIII sPLA2
From the text: (§1) FIG. 4 presents the enzymatic properties of hGIII sPLA2. A, Ca^2+ dependency of the hydrolysis of 1 -palmitoyl-2-(10-pyrenedecanoyl)-sn-glycerol-3- phosphomethanol vesicles by Q-sepharose purified hGIII sPLA2. B, pH dependency of the hydrolysis of phosphatidylcholne vesicles by Q-Sepharose purified gGIII sPLA2. Studies to measure the initial rate of hydrolysis of small unilamellar vesicles of phosphatidylglycerol (1-palmitoyl-2-([9,10[^3H])-palmitoyl-sn-glycero-3-phosphoglycerol in 1-palmitoyl-2-oleoyl-sn-glycero-3-phosphoglycerol at 50 Ci/mol) and phosphatidylcholine (1-palmitoyl-2-([9,10[^3H])-palmitoyl-sn-glycero-3-phosphocholine, 50 Ci/mol) were carried as described (8) using Q-Sepharose purified hGIII sPLA2. Initial rates were calculated from 3 time points in the linear portion of the product versus time curve. pH-rate profiles for the hydrolysis of phosphatidylcholine were obtained as described (8). The Ca^2+ dependency of phospholipid hydrolysis was carried out with the fluorimetric assay (described above) with 10 μM EGTA (no Ca^2+) or with CaCl2 in excess of EGTA to give 10-650 μM Ca^2+.

[2] = Initial rate of hydrolysis of small unilamellar vesicles of phosphatidylglycerol and phosphatidylcholine; format: biochemical, human; conditions: Q-Sepharose purified hGIII sPLA2; data not shown
Method: as §1, with “Studies” for “FIG. 4 presents the enzymatic properties of hGIII sPLA2. A, Ca^2+ dependency of the hydrolysis of 1 -palmitoyl-2-(10-pyrenedecanoyl)-sn-glycerol-3- phosphomethanol vesicles by Q-sepharose purified hGIII sPLA2. B, pH dependency of the hydrolysis of phosphatidylcholne vesicles by Q-Sepharose purified gGIII sPLA2. Studies”

B1: hGIII sPLA2: novel human secreted group III phospholipase A2, SEQ ID No. 2, expressed recombinantly in COS cells and partially purified on Q-Sepharose (protein, listed as Homo sapiens)
chain: MGVQAGLFGMLGFLGVALGGSPALRWYRTSCHLTKAVPGNPLGYLSFLAKDAQGLALIHARWDAHRRLQACSWEDEPELTAAYGALCAHETAWGSFIHTPGPELQRALATLQSQWEACRALEESPAGARKKRAAGQSGVPGGGHQREKRGWTMPGTLWCGVGDSAGNSSELGVFQGPDLCCREHDRCPQNISPLQYNYGIRNYRFHTISHCDCDTRFQQCLQNQHDSISDIVGVAFFNVLEIPCFVLEEQEACVAWYWWGGCRMYGTVPLARLQPRTFYNASWSSRATSPTPSSRSPAPPKPRQKQHLRKGPPHQKGSKRPSKANTTALQDPMVSPRLDVAPTGLQGPQGGLKPQGARWVCRSFRRHLDQCEHQIGPREIEFQLLNSAQEPLFHCNCTRRLARFLRLHSPPEVTNMLWELLGTTCFKLAPPLDCVEGKNCSRDPRAIRVSARHLRRLQQRRHQLQDKGTDERQPWPSEPLRGPMSFYNQCLQLTQAARRPDRQQKSWSQ
pH of optimal activity on phosphatidylcholine vesicles [1]: 8 pH
Activity on anionic phosphatidylglycerol vesicles versus zwitterionic phosphatidylcholine vesicles, based on initial velocities [2]: 11 fold
